Test results taken from patent US20090312236A1.

Biological target: human IGF-1 receptor (human) (UniProt P08069)
Test: competitive radioligand SPA, [125I]IGF-1, hIGF-1R membranes

insulin lispro (ligand; other documents disagree on this pair)
Ki: > 0.075 µM
